# Legend:
# K. pneumoniae = experiment: MIC, broth microdilution; type: cell-based, Klebsiella pneumoniae
# Method: (§1) The MIC of the LNT113 or antibiotic was determined using modification of the broth microdilution method in a 96-well, round bottom, microplate according to the previously described method (Heselpoth et al., 2019). Exponentially grown cells were diluted to a concentration of 10^6 CFU/ml in a CAA medium, and then cultured with recombinant LNT113 (1-64 μg/ml) or antibiotics at 35° C. for 20 hours. […] The MBC was defined as the lowest concentration of the antibacterial agent with no growth on a plate. All analyses were performed in duplicate.
# E. coli [1] = experiment: Antibacterial activity analysis (colony count after 2 hours in buffer); type: cell-based, Escherichia coli
# Method: The antibacterial activity of the purified protein was tested for E. coli and various K. pneumoniae strains. The bacterium were grown to an exponential phase (OD600=0.5) and harvested by centrifugation at 12,000×g for 3 minutes. Then, the pellets were washed with reaction buffer solution (20 mM Tris-HCl, pH 7.5) and diluted to about 10^6 cells/ml in the buffer solution. Then, 100 μl bacterial suspension was mixed with the purified endolysin of 100 μl in the reaction buffer solution and incubated at 37° C. for 2 hours. Finally, the mixture was diluted with PBS and loaded on an LB plate. After culturing at 37° C. overnight, the bacterial colonies were counted. All the analysis was performed in triplicate.
# The same reaction was performed for the selected subject bacterium in 20 mM HEPES-NaOH, 150 mM NaCl [pH 7.4], and the unique antibacterial activity of Tris and dependence of endolysin for turgor pressure were excluded (FIG. 10a and FIG. 10b). […] The bacterial cells grown geometrically were cultured with 2 μM endolysin in low tonicity buffers (20 mM Tris-HCl, pH 7.5 or 20 mM HEPES, pH 7.5) or high tonicity buffers (buffer solution comprising 150 mM NaCl) at 37° C. for 2 hours. The cells treated with storage buffer solution (20 mM Tris-HCl, pH 7.5, 150 mM NaCl buffer solution (pH 7.5)) were used as a negative control group. The dotted line represents the detection limit (1 Log CFU/ml).
# For this, endolysin EC340 at a concentration of 2 μM and each test bacterium were added to reaction buffer (20 mM Tris-Cl, pH 7.5) so that the final concentration was to be 200 μl, and were left at 37° C. for 2 hours. After 2 hours, the number of colonies of Acinetobacter baumannii, Pseudomonas aeruginosa and Escherichia coli was confirmed, and the result was shown in FIG. 3.
# Salmonella enteritidis = experiment: MIC, broth microdilution; type: cell-based
# Method: as §1
# Salmonella typhimurium = experiment: MIC, broth microdilution; type: cell-based
# Method: as §1
# E. coli ATCC 8739 = experiment: 1-N-phenylnaphthylamine (NPN) absorption analysis, outer membrane permeability; type: cell-based, Escherichia coli; conditions: 2 μM
# Method: NPN absorption analysis was performed by the previously described method (Helander and Mattila-Sandholm, 2000). In other words, E. coli ATCC 8739 grown to an exponential phase (OD600=0.4) was washed and resuspended with buffer solution (5 mM HEPES, pH 7.2) to about 10^8 cells/ml. 40 μM NPN (Sigma-Aldrich) 50 μl was mixed with the purified endolysin or Cecropin A (AbClon, Korea) 50 μl so that the final concentration was 2 μM in a 96-well black plate. Outer membrane permeation agents, 1 mM EDTA (Duchefa) and 2 μM Polymyxin B (Sigma-Aldrich) were used as a positive control group. Then, cell suspension 100 μl was added to each well, and cultured at 37° C. for 5 minutes. Buffer alone, buffer+NPN, cell suspension+buffer and cell suspension+buffer+NPN were used as a negative control group. Fluorescence was measured at excitation (350 nm) and emission (420 nm) using a microplate reader (SpectraMax iD3, Molecular Devices, USA). An NPN absorption factor was calculated by dividing the fluorescence value after background removal (the value that the value without NPN subtracted from the fluorescence value of the cell mixture with the sample) with the fluorescence value of the cell suspension with buffer subtracted from the fluorescence value of buffer without NPN.
# E. coli [2] = experiment: Checkerboard assay (MIC in combination, FIC index); type: cell-based, Escherichia coli
# In short: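 Against E. coli at 10^6 CFU/ml in CAA medium, LNT113 and antibiotic were 2-fold serially diluted in checkerboard format.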
# P. aeruginosa = experiment: MIC, broth microdilution; type: cell-based, Pseudomonas aeruginosa
# Method: as §1
molecule,measurement,setting,value
"LNT113: fusion polypeptide: Cecropin A, (GGGGS)3 linker, mutant endolysin mtEC340; recombinant form with C-terminal His tag (protein, synthetic_Met+Cecropin A+GGGGS3 linker+mtEC340, fusion polypeptide: Cecropin A, (GGGGS)3 linker, mutant endolysin mtEC340; recombinant form with C-terminal His tag) MKWKLFKKIEKVGQNIRDGIIKAGPAVAVVGQATQIAKGGGGSGGGGSGGGGSVSRNISNNGIKFTAAFEGFRGTAYRATPNEKYLTIGYGSYGPHVEPGKTITPGQGLLLLNRDMAKAVAAVDAVAHHSLTQSQFDAVCDLVYNAGAGVIAAATGTGKALRSGDVATLRAKLALFINQNGKPLLGLRRRTAGRLALFDGKPWQEAEAIGRAVKG",MIC,K. pneumoniae; K. pneumoniae ATCC 700603,16 µg/mL
same,MIC,K. pneumoniae; K. pneumoniae CCARK 10143,4 µg/mL
same,MIC,K. pneumoniae; K. pneumoniae F144,16 µg/mL
same,MIC,K. pneumoniae; K. pneumoniae Fil8,16 µg/mL
same,MIC,K. pneumoniae; K. pneumoniae KCTO 2208,8 µg/mL
same,MIC,K. pneumoniae; K. pneumoniae P1O4,16 µg/mL
same,antibacterial activity (number of bacterium),"E. coli [1]; E. coli ATCC8739, ATCC25922, CCARM1A746, CCARM1B684, 2 μM, 2 hours, Tris-HCl pH 7.5",more excellent antibacterial activity
same,effect of adding NaCl on antibacterial activity,"E. coli [1]; E. coli ATCC 8739, 2 μM, Tris or Hepes buffer with 150 mM NaCl",negative effect of salt presence was significantly reduced
same,dose and time dependence of antibacterial activity,"E. coli [1]; E. coli ATCC 8739, 0.1-2.7 μM, 0.5 μM over time",antibacterial activity according to dose and time
same,antibacterial activity compared to Cecropin A and/or mtEC340,"E. coli [1]; E. coli ATCC8739, final concentration of 0.5 mM",enhanced antibacterial activity
same,increase in activity compared to mtEC340,"E. coli [1]; E. coli strains, 2 μM, 2 hours",≤ 4 log
same,viable bacterial cells after culturing for 2 hours,"E. coli [1]; all tested E. coli strains, 2 μM",No viable bacterial cells were detected
same,amount of bacterial cells after treatment,"E. coli [1]; colistin-resistant E. coli FORC81, 2 μM, 2 hours",below the detection limit
same,MIC,Salmonella enteritidis,> 64 µg/mL
same,MIC,Salmonella typhimurium,> 64 µg/mL
same,increase of membrane penetration (NPN),E. coli ATCC 8739,1.8 times
same,membrane penetration relative to cecropin A alone (NPN),E. coli ATCC 8739,1.3 fold
same,MIC of endolysin combined with colistin: LNT113,"E. coli [2]; E. coli ATOCB739, Colistin 0",8 µg/mL
same,MIC of endolysin combined with colistin: LNT113,"E. coli [2]; E. coli ATOCB739, Colistin 0.0625",4 µg/mL
same,MIC of endolysin combined with colistin: LNT113,"E. coli [2]; E. coli ATOCB739, Colistin 0.5",2 µg/mL
same,MIC of endolysin combined with colistin: LNT113,"E. coli [2]; E. coli ATOCB739, Colistin 1",1 µg/mL
same,MIC of endolysin combined with colistin: LNT113,"E. coli [2]; E. coli FORC81, Colistin 0",8 µg/mL
same,MIC of endolysin combined with colistin: LNT113,"E. coli [2]; E. coli FORC81, Colistin 1",4 µg/mL
same,MIC of endolysin combined with colistin: LNT113,"E. coli [2]; E. coli FORC81, Colistin 4",2 µg/mL
same,MIC of endolysin combined with colistin: LNT113,"E. coli [2]; E. coli FORC81, Colistin 8",<0.25 µg/mL
same,MIC of endolysin combined with colistin: LNT113,"E. coli [2]; E. coli UPEC3150, Colistin 0",8 µg/mL
same,MIC of endolysin combined with colistin: LNT113,"E. coli [2]; E. coli UPEC3150, Colistin 0.0625",4 µg/mL
same,MIC of endolysin combined with colistin: LNT113,"E. coli [2]; E. coli UPEC3150, Colistin 0.5",2 µg/mL
same,MIC of endolysin combined with colistin: LNT113,"E. coli [2]; E. coli UPEC3150, Colistin 2",1 µg/mL
same,MIC,P. aeruginosa; P. aeruginosa ATCC 15522,8 µg/mL
same,MIC,P. aeruginosa; P. aeruginosa F102,16 µg/mL
same,MIC,P. aeruginosa; P. aeruginosa F125,4 µg/mL
same,MIC,P. aeruginosa; P. aeruginosa F141,16 µg/mL
same,MIC,P. aeruginosa; P. aeruginosa F171,32 µg/mL
same,MIC,P. aeruginosa; P. aeruginosa F388,32 µg/mL
same,MIC,P. aeruginosa; P. aeruginosa PA01,4 µg/mL

# — patent US12102667B2, “Polypeptides and antibiotics against gram-negative bacterium comprising the same” (priority 2021, dated 2024)
